In the assay the target is ubc4_yeast UBC4 (UniProt P15731).
Chain of ubc4_yeast UBC4 (P15731 whole entry): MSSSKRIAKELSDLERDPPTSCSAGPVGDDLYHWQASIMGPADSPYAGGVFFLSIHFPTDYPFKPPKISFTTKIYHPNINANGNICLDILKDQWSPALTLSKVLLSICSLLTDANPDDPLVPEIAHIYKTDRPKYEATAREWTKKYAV
As for “E3 ubiquitin-protein ligase RSP5 (Saccharomyces cerevisiae), P39940 D614M”, the “effect of a mutation on the interaction” value was “decreasing interaction strength”. On to “E3 ubiquitin-protein ligase RSP5 (Saccharomyces cerevisiae), P39940 L607M”, for which the “effect of a mutation on the interaction” value was “decreasing interaction strength”. In the case of “E3 ubiquitin-protein ligase RSP5 (Saccharomyces cerevisiae), P39940 S594M”, the “effect of a mutation on the interaction” value was “decreasing interaction strength”. Consider “E3 ubiquitin-protein ligase RSP5 (Saccharomyces cerevisiae), P39940 W597M”, for which the “effect of a mutation on the interaction” value was “disrupting interaction strength”. Consider “E3 ubiquitin-protein ligase RSP5 (Saccharomyces cerevisiae), P39940 Y647M”, for which the “effect of a mutation on the interaction” value is on record as “decreasing interaction strength”.
